{"source": "patent US20240409618A1", "biological_target": "SARS-CoV-2 B.1.351 (Beta) spike on pseudotyped virus (SARS-CoV-2 B.1.351) (UniProt P0DTC2)", "experiment": "cell-based or functional assay"}
{"substance": "DMAb REGN10987 (FcWT) (antibody)", "values": [{"measurement": "fold change of neutralization against B.1.351 pseudovirus relative to WA1/2020", "value": "< 3", "unit": "fold"}]}
